Data reported in the supplement of paper PMC9112550, “Optimization of the antimicrobial peptide Bac7 by deep mutational scanning” (BMC Biology, 2022).

These sequences were tested on Escherichia coli TOP10 (assay: shrunken log2 fold change of peptide-encoding DNA abundance (4.5 h post-induction vs induction); higher = less antimicrobial activity (less host growth inhibition)). Conditions: time post-induction: 4.5 h; library: site-saturation at positions 5, 18, 19, 20.
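Further: peptides expressed intracellularly from a pBAD plasmid library in pooled LB shake-flask culture, induced with 0.3% L-arabinose, DNA abundance read by NGS, three biological replicates, DESeq2 with apeglm shrinkage.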

| Sequence | shrunken log2 fold change |
| --- | --- |
| RRIRKRPPRLPRPRPRPEPIPRP | -0.0204 |
| RRIRKRPPRLPRPRPRPGYTPRP | -0.0679 |
| RRIRFRPPRLPRPRPRPPKQPRP | 0.226 |
| RRIRDRPPRLPRPRPRPHIWPRP | -0.0717 |
| RRIRFRPPRLPRPRPRPHKMPRP | -0.154 |
| RRIRNRPPRLPRPRPRPYYAPRP | -0.0919 |
| RRIRHRPPRLPRPRPRPHRCPRP | 0.0171 |
| RRIRCRPPRLPRPRPRPQWQPRP | 0.0413 |
| RRIRHRPPRLPRPRPRPIIDPRP | -0.0219 |
| RRIRARPPRLPRPRPRPTWRPRP | 0.813 |
| RRIRQRPPRLPRPRPRPCICPRP | -0.542 |
| RRIRRRPPRLPRPRPRPCHFPRP | -0.181 |
| RRIRHRPPRLPRPRPRPRFLPRP | 0.0768 |
| RRIRHRPPRLPRPRPRPIEHPRP | -0.394 |
| RRIRFRPPRLPRPRPRPQRCPRP | 0.08 |
| RRIRSRPPRLPRPRPRPEDSPRP | 0.00839 |
| RRIRARPPRLPRPRPRPIFRPRP | 0.205 |
| RRIRVRPPRLPRPRPRPFKCPRP | -0.0453 |
| RRIRVRPPRLPRPRPRPVMPPRP | -0.0577 |
| RRIRWRPPRLPRPRPRPQLAPRP | 0.351 |
| RRIRHRPPRLPRPRPRPIFMPRP | -0.0784 |
| RRIRQRPPRLPRPRPRPFLHPRP | 0.0118 |
| RRIRCRPPRLPRPRPRPPTCPRP | 0.183 |
| RRIRSRPPRLPRPRPRPAMAPRP | 1.64 |
| RRIRKRPPRLPRPRPRPIAYPRP | -0.0799 |

| Sequence | shrunken log2 fold change |
| --- | --- |
| RRIRRRPPRLPRPRPRPWLSPRP | 0.0437 |
| RRIRYRPPRLPRPRPRPVKPPRP | 0.00519 |
| RRIRERPPRLPRPRPRPWFFPRP | -0.358 |
| RRIRLRPPRLPRPRPRPTHWPRP | 0.416 |
| RRIRYRPPRLPRPRPRPQSKPRP | -0.607 |
| RRIRNRPPRLPRPRPRPYHFPRP | -0.309 |
| RRIRHRPPRLPRPRPRPAYGPRP | -0.075 |
| RRIRRRPPRLPRPRPRPHDKPRP | 0.302 |
| RRIRRRPPRLPRPRPRPNCYPRP | -0.0134 |
| RRIRSRPPRLPRPRPRPCFIPRP | -0.688 |
| RRIRQRPPRLPRPRPRPQLTPRP | -0.405 |
| RRIRPRPPRLPRPRPRPKRCPRP | -0.0846 |
| RRIRTRPPRLPRPRPRPLAFPRP | 2.19 |
| RRIRLRPPRLPRPRPRPYYMPRP | -0.671 |
| RRIRVRPPRLPRPRPRPELQPRP | -0.0355 |
| RRIRGRPPRLPRPRPRPHQIPRP | 0.103 |
| RRIRARPPRLPRPRPRPRSYPRP | 0.242 |
| RRIRARPPRLPRPRPRPHFCPRP | -0.105 |
| RRIRKRPPRLPRPRPRPEGPPRP | 0.447 |
| RRIRDRPPRLPRPRPRPSLDPRP | -0.0616 |
| RRIRYRPPRLPRPRPRPGRGPRP | 0.254 |
| RRIRWRPPRLPRPRPRPQATPRP | 0.381 |
| RRIRPRPPRLPRPRPRPAEDPRP | -0.114 |
| RRIRMRPPRLPRPRPRPVPVPRP | 0.364 |
| RRIRNRPPRLPRPRPRPLNRPRP | -0.327 |

| Sequence | shrunken log2 fold change |
| --- | --- |
| RRIRSRPPRLPRPRPRPIKGPRP | -0.00753 |
| RRIRPRPPRLPRPRPRPGCAPRP | 1.55 |
| RRIRPRPPRLPRPRPRPCTVPRP | 0.0392 |
| RRIRNRPPRLPRPRPRPSEIPRP | -0.0685 |
| RRIRFRPPRLPRPRPRPKTWPRP | 0.157 |
| RRIRCRPPRLPRPRPRPSPEPRP | 0.3 |
| RRIRGRPPRLPRPRPRPCTRPRP | 0.0901 |
| RRIRKRPPRLPRPRPRPQLQPRP | 0.199 |
| RRIRIRPPRLPRPRPRPNATPRP | -0.12 |
| RRIRLRPPRLPRPRPRPETIPRP | 0.0243 |
| RRIRLRPPRLPRPRPRPATSPRP | -0.149 |
| RRIRCRPPRLPRPRPRPIFSPRP | -0.0342 |
| RRIRDRPPRLPRPRPRPDPEPRP | 0.0311 |
| RRIRGRPPRLPRPRPRPIDPPRP | -0.0473 |
| RRIRTRPPRLPRPRPRPLRCPRP | 0.108 |
| RRIRWRPPRLPRPRPRPQFPPRP | 0.0157 |
| RRIRPRPPRLPRPRPRPGREPRP | 2.45 |
| RRIRHRPPRLPRPRPRPLHDPRP | -0.277 |
| RRIRTRPPRLPRPRPRPMQMPRP | 0.39 |
| RRIRCRPPRLPRPRPRPAVGPRP | 0.155 |
| RRIRTRPPRLPRPRPRPVVPPRP | -0.314 |
| RRIRTRPPRLPRPRPRPFTNPRP | -0.0559 |
| RRIRSRPPRLPRPRPRPVECPRP | -0.0425 |
| RRIRSRPPRLPRPRPRPAFYPRP | -0.166 |
| RRIRIRPPRLPRPRPRPRGTPRP | 0.277 |

| Sequence | shrunken log2 fold change |
| --- | --- |
| RRIRVRPPRLPRPRPRPTLYPRP | -0.155 |
| RRIRERPPRLPRPRPRPIRIPRP | -0.00822 |
| RRIRKRPPRLPRPRPRPCQTPRP | 0.233 |
| RRIRDRPPRLPRPRPRPFFQPRP | -0.24 |
| RRIRPRPPRLPRPRPRPPDHPRP | 0.182 |
| RRIRYRPPRLPRPRPRPGGSPRP | -0.017 |
| RRIRTRPPRLPRPRPRPNNPPRP | -0.684 |
| RRIRVRPPRLPRPRPRPGHYPRP | -0.125 |
| RRIRLRPPRLPRPRPRPVTQPRP | -0.323 |
| RRIRLRPPRLPRPRPRPTHRPRP | 0.101 |
| RRIRIRPPRLPRPRPRPKWPPRP | 0.0341 |
| RRIRRRPPRLPRPRPRPIMNPRP | -0.347 |
| RRIRKRPPRLPRPRPRPLSPPRP | 0.615 |
| RRIRTRPPRLPRPRPRPKRQPRP | 0.562 |
| RRIRCRPPRLPRPRPRPTDGPRP | -0.116 |
| RRIRCRPPRLPRPRPRPWHEPRP | -0.0591 |
| RRIRKRPPRLPRPRPRPEYRPRP | 0.012 |
| RRIRPRPPRLPRPRPRPQMGPRP | -0.0457 |
| RRIRIRPPRLPRPRPRPRNFPRP | -0.283 |
| RRIRHRPPRLPRPRPRPKMCPRP | -0.00195 |
| RRIRTRPPRLPRPRPRPAAFPRP | -0.128 |
| RRIRPRPPRLPRPRPRPVIIPRP | -0.286 |
| RRIRWRPPRLPRPRPRPWDYPRP | -0.0902 |
| RRIRFRPPRLPRPRPRPEHEPRP | 0.0369 |
| RRIRQRPPRLPRPRPRPIMPPRP | -0.361 |

| Sequence | shrunken log2 fold change |
| --- | --- |
| RRIRPRPPRLPRPRPRPWQKPRP | -0.179 |
| RRIRPRPPRLPRPRPRPLIPPRP | -0.19 |
| RRIRVRPPRLPRPRPRPDRLPRP | 0.314 |
| RRIRIRPPRLPRPRPRPCASPRP | 0.02 |
| RRIRYRPPRLPRPRPRPTGMPRP | 0.0495 |
| RRIRFRPPRLPRPRPRPGYVPRP | -0.116 |
| RRIRSRPPRLPRPRPRPNAVPRP | -0.205 |
| RRIRDRPPRLPRPRPRPLVHPRP | 0.265 |
| RRIRIRPPRLPRPRPRPRKMPRP | 0.142 |
| RRIRFRPPRLPRPRPRPMWSPRP | -0.227 |
| RRIRIRPPRLPRPRPRPLWYPRP | -0.551 |
| RRIRPRPPRLPRPRPRPHMLPRP | -0.226 |
| RRIRVRPPRLPRPRPRPLDAPRP | 0.571 |
| RRIRRRPPRLPRPRPRPGSIPRP | -0.0979 |
| RRIRIRPPRLPRPRPRPQHLPRP | -0.542 |
| RRIRCRPPRLPRPRPRPYWYPRP | -0.553 |
| RRIRHRPPRLPRPRPRPRIRPRP | -0.00948 |
| RRIRYRPPRLPRPRPRPTDDPRP | 0.0131 |
| RRIRIRPPRLPRPRPRPKDMPRP | -0.221 |
| RRIRQRPPRLPRPRPRPGWTPRP | 0.286 |
| RRIRCRPPRLPRPRPRPAKWPRP | 0.235 |
| RRIRCRPPRLPRPRPRPEHVPRP | 0.229 |
| RRIRKRPPRLPRPRPRPDCQPRP | 0.00443 |
| RRIRCRPPRLPRPRPRPSCLPRP | -0.499 |
| RRIRIRPPRLPRPRPRPHIRPRP | -0.297 |

| Sequence | shrunken log2 fold change |
| --- | --- |
| RRIRLRPPRLPRPRPRPCSCPRP | 0.00383 |
| RRIRGRPPRLPRPRPRPWPIPRP | -0.095 |
| RRIRDRPPRLPRPRPRPIYGPRP | -0.0774 |
| RRIRHRPPRLPRPRPRPAPAPRP | 0.289 |
| RRIRFRPPRLPRPRPRPYKTPRP | -0.166 |
| RRIRLRPPRLPRPRPRPDDMPRP | 0.0411 |
| RRIRWRPPRLPRPRPRPMIMPRP | -0.0612 |
| RRIRYRPPRLPRPRPRPVTGPRP | -0.213 |
| RRIRPRPPRLPRPRPRPEDWPRP | 0.391 |
| RRIRMRPPRLPRPRPRPNGMPRP | 0.185 |
| RRIRFRPPRLPRPRPRPHQFPRP | -0.343 |
| RRIRERPPRLPRPRPRPNEKPRP | -0.0183 |
| RRIRRRPPRLPRPRPRPDGSPRP | 0.0601 |
| RRIRPRPPRLPRPRPRPTLTPRP | 1.22 |
| RRIRIRPPRLPRPRPRPYRSPRP | -0.186 |
| RRIRKRPPRLPRPRPRPWYYPRP | -0.198 |
| RRIRTRPPRLPRPRPRPMANPRP | -0.102 |
| RRIRHRPPRLPRPRPRPRAMPRP | 0.592 |
| RRIRARPPRLPRPRPRPEEGPRP | 0.457 |
| RRIRWRPPRLPRPRPRPYGYPRP | -0.345 |
| RRIRARPPRLPRPRPRPKRIPRP | 0.122 |
| RRIRNRPPRLPRPRPRPHGFPRP | 0.0815 |
| RRIRVRPPRLPRPRPRPTWHPRP | 0.384 |
| RRIRDRPPRLPRPRPRPNKIPRP | -0.457 |
| RRIRMRPPRLPRPRPRPVETPRP | -0.00114 |
